Assay results from patent publication US20260234226A1 (IMAGINAB, published 2026).

What was measured:
[1] = molecular target: T1, DLL3 on tumor cells of the SHP-77 and NCI-H82 cell lines (UniProt Q9NYJ7 27-618, limits assumed); assay: flow cytometry on NCI-H82 tumor cells, mean fluorescence; the legend gives no unit, nM is from the axis '[Minibody],nM'
T1 construct: whole, on cells; also called cellular targets
T1 sequence (looked up): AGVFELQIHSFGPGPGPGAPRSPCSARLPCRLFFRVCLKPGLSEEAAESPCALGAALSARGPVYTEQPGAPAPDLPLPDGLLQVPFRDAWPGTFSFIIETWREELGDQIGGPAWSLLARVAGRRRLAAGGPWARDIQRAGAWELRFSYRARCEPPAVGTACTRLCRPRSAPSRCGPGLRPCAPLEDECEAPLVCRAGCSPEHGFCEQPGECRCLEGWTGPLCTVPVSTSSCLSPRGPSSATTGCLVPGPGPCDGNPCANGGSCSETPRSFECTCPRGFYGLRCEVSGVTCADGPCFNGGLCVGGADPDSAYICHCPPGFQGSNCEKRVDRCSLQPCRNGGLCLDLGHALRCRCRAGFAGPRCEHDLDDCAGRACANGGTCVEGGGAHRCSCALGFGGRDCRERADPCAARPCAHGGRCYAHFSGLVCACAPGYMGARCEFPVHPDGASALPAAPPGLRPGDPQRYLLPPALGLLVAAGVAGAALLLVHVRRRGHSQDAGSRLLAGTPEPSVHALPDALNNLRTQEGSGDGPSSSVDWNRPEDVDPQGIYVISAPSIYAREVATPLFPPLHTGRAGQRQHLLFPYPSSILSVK
Procedure: (§1) As disclosed herein, the binding of constructs to cellular targets was assessed using flow cytometry. Stock of 2.5× serial dilution of minibodies were created starting from a concentration of 100 nM in 180 μl FACS buffer (PBS 2% FBS). Cells were added to a Corning V-bottom polypropylene cell culture plate at 200,000 cells/well. The cells were centrifuged at 100 rpm for 3 minutes and the supernatant discarded. The minibody dilution series were transferred to the plate containing cell pellets and incubated for 1 hr at 4° C. The plate was then washed 3 times with FACS buffer at 200 μl/well, discarding supernatant after each wash by centrifugation at 1000 rpm. 50 μl/well of detection antibody R&D AlexaFluor-647 Goat anti Human (H+L) was added at a 1:100 dilution in FACS buffer and incubated at 4° C. 1 hr. The plate was washed 3 times with FACS buffer at 200 μl/well, discarding supernatant after each wash by centrifuging at 1000 rpm. Cells were then fixed by adding 100 μl of 1% paraformaldehyde in PBS and incubating at room temperature for 15 minutes. 100 μl of PBS were added to each well and the plate was analyzed by flow cytometry using the allophycocyanin fluorescence setting.

[2] = molecular target: T1, DLL3 on tumor cells of the SHP-77 and …; assay: flow cytometry on SHP-77 tumor cells, mean fluorescence; the legend gives no unit, nM is from the axis '[Minibody],nM'
Procedure: as §1

[3] = molecular target: T2, purified human/cynomolgus/dog/mouse/rat or minipig DLL3 antigen (ELISA coat) (human/cynomolgus/dog/mouse/rat or …); assay: ELISA, plate coated with purified DLL3 antigen, HRP secondary (FIG. 8)
T2 construct: May be the same protein as the his-tagged antigen used for BLI
T2 sequence (Q9NYJ7 whole entry): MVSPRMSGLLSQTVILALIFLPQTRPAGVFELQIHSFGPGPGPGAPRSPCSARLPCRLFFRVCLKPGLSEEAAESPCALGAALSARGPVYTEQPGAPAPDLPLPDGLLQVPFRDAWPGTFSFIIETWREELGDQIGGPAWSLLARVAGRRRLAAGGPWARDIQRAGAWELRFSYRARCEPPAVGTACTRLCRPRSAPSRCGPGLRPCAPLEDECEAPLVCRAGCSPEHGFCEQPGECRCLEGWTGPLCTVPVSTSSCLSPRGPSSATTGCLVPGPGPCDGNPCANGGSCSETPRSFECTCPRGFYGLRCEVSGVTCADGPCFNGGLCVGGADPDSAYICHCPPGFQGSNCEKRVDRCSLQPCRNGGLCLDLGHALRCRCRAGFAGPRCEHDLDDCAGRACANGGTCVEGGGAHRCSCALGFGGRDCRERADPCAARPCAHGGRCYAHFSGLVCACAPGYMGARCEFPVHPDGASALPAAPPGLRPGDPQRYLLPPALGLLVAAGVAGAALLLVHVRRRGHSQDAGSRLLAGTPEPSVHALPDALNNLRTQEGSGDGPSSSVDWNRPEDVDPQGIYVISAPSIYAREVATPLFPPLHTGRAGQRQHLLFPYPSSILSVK
Procedure: (§2) Binding affinity of the novel antigen binding constructs to a purified human/cynomolgus/dog/mouse/rat or minipig DLL3 antigen was assessed using ELISA. For this assay, a 96 well ELISA plate was coated with the DLL3 antigen diluted to a concentration of […] in coating buffer (0.05M sodium carbonate-bicarbonate buffer, pH 9.6). 100 μl of this coating solution was added to each well in the plate and incubate at 4° C. overnight. The plate was washed 3 times with 300 μl per well of washing buffer (PBS with 0.05% Tween-20). After the last wash, the plate was blocked by adding to each well 200 μl of blocking buffer (PBS with 1% BSA) warmed to room temperature. The plate was then incubated at room temperature for 1 hour under gentle agitation. After blocking, the plate was washed 3 times with 300 μl per well of washing buffer. Dilution samples for each minibody were created by making 2.5× dilutions from a starting sample at 100 ng/mL, or 250 ng/mL, or 1000 ng/mL or 3000 ng/mL in 100 μL sample buffer (PBS with 1% BSA). The dilution samples were transferred to the assay plate and incubated at room temperature for 1 hour under gentle agitation. The plate was then washed 3 times with 300 μl per well of washing buffer.
Detection was performed by adding 100 μl of HRP labeled detection secondary antibody at an appropriate dilution and incubating the plate at room temperature for 1 hour under gentle agitation. The plate was then washed 3 times with 300 μl per well of washing buffer. For color development, 100 μl of TMB substrate regent, pre-warmed to room temperature, was added to the plate and incubated in the dark at room temperature for 15 min. The reaction was then stopped by adding 100 μl of 650 nm stop solution to the plate and mixed for 1 min at room temperature under gentle agitation. The plate is recorded by reading OD at 650 nm in a plate reader within 20 min after terminating the reaction.

[4] = molecular target: T3, his-tagged-DLL3 antigen (purified human/cynomolgus/dog/mouse/rat or minipig DLL3 antigen) (human/cynomolgus/dog/mouse/rat or …); assay: biolayer interferometry, his-tagged DLL3 on a Ni-NTA tip, minibody at 100 nM; the table gives no unit, nm is from the axis 'Binding (nm)'
T3 construct: Antigen loaded on nickel-NTA tips for biolayer interferometry; also called Delta-like protein 3
T3 sequence (Q9NYJ7 whole entry): as above
Procedure: (§3) As disclosed herein, the binding kinetics of the novel antigen binding constructs to a purified human/cynomolgus/dog/mouse/rat or minipig DLL3 antigen was assessed using biolayer interferometry (TABLE 9) (FIG. 9). The his-tagged-DLL3 antigen was diluted in phosphate buffer saline (PBS) at 10 μg/mL and loaded on a nickel-NTA tip until saturation. The on-rate (Kon) and off-rate (Koff), and the dissociation constant KD, where recorded on Octet BLItz instrument. Dilution samples of the antigen binding construct were prepared in PBS at concentrations between 100 nM and 0.1 nM, by 2.5× dilutions and binding curves recorded at each concentration. Off-rate curves were recorded by immersion of the tip in PBS.

[5] = molecular target: T3, his-tagged-DLL3 antigen (purified …); assay: biolayer interferometry (Octet BLItz), his-tagged DLL3 on nickel-NTA tip, minibody in solution
Procedure: as §3

[6] = molecular target: T2, purified human/cynomolgus/dog/mouse/rat …; assay: ELISA on plate-coated recombinant DLL3 antigen, A650 readout, panel with IAB57M1-7, IAB57M2-8, IAB57M1-3 and IAB57M2-6
Procedure: as §2, with “The dilution samples were transferred to the assay plate and incubated at room temperature for 1 hour under gentle agitation. The plate was then washed 3 times with 300 μl per well of washing buffer.” left out
Detection was performed by adding 100 μl of HRP labeled detection secondary antibody at an appropriate dilution and incubating the plate at room temperature for 1 hour under gentle agitation. […] The plate is recorded by reading OD at 650 nm in a plate reader within 20 min after terminating the reaction.

B1: IAB57M1-3 (other)
chain: EIVMTQSPATLSVSPGERATLSCKASQSVSNDVVWYQQKPGQAPRLLIYDASNRYTGIPARFSGSGSGTEFTLTISSLQSEDFAVYYCQQDYTSPWTFGQGTKLEIKGSTSGGGSGGGSGGGGSSQVQLVQSGAEVKKPGASVKVSCKASGYTFTNYGMNWVRQAPGQGLEWMGWINTYTGEPTYADDFKGRVTMTTDTSTSTAYMELRSLRSDDTAVYYCARIGDSSPSDYWGQGTLVTVSSEPKSSDKTHTCPPCPPCGGGSSGGGSGGQPREPQVYTLPPSREEMTKNQVSLTCLVKGFYPSDIAVEWESNGQPENNYKTTPPVLDSDGSFFLYSKLTVDKSRWQQGNVFSCSVMHEALHNHYTQKSLSLSPG
notes: Signal peptide left out
- EC50 [1]: 0.04 nM
- EC50 [2]: 0.01 nM
- EC50 [3]: 0.109 nM
- R equilibrium [4]: 1.04 nm
- Kd [5]: 4 nM
- koff [5]: 0.00239 s⁻¹
- kon [5]: 599000 M⁻¹ s⁻¹
- EC50 (read off the curve) [6]: ~0.1 nM
